Experimental data published in PMC5509742, “Structure of polyhydroxyalkanoate (PHA) synthase PhaC from Chromobacterium sp. USM2, producing biodegradable plastics” (Scientific Reports, 2017).

B1: PHA synthase PhaC from Chromobacterium sp. USM2, full-length (enzyme)
chain: not shown
notes: two additional vector-derived residues (Gly-Pro) identified at the N-terminus after PreScission cleavage; Class I PHA synthase PhaC, Chromobacterium sp; USM2; full-length gene of 1704 nucleotides, calc; 63.4 kDa; Cloned into the His-fusion vector pET47b(+); the His-tag was removed with PreScission protease; also called PhaCCs; full-length PhaCCs; source: E. coli Rosetta 2 (DE3), purified (Ni-NTA, …)
B2: catalytic domain of PhaC from Chromobacterium sp. USM2 (residues 175-567) (domain or fragment)
chain: not shown
notes: two additional vector-derived residues (Gly-Pro) identified at the N-terminus after PreScission cleavage; Class I PHA synthase PhaC, Chromobacterium sp; USM2, C-terminal catalytic (CAT) domain, residues 175-567 (1179 nucleotides, calc. 43.8 kDa); Cloned into the His-fusion vector pET47b(+); the His-tag was removed with PreScission protease; also called PhaCCs-CAT; mol A; source: E. coli Rosetta 2 …

What was measured:
[1] = target: the molecule itself; test: AUC; sedimentation velocity, 20 °C, 20,000 rpm, 5 µM full-length PhaCCs without substrate, 10 mM Tris-HCl (pH 8.0), 100 mM NaCl, 3 mM β-ME; monomer to dimer
[2] = target: the molecule itself; test: AUC; sedimentation velocity, 20 °C, 20,000 rpm, 5 µM full-length PhaCCs with 50 µM DL-3HB-CoA (10-fold molar ratio), 10 mM Tris-HCl (pH 8.0), 100 mM NaCl, 3 mM β-ME
[3] = target: the molecule itself; test: AUC; sedimentation velocity, 20 °C, 20 µM PhaCCs-CAT without DL-3HB-CoA, 10 mM Tris-HCl (pH 8.0), 100 mM NaCl, 3 mM β-ME; monomer to dimer

Protein	stoichiometry N [1]	stoichiometry N [2]	stoichiometry N [3]
B1	2	~4	–
B2	–	–	2
